Tests used:
[1] = molecular target: collapsin response mediator protein-2, intact (rat) (UniProt P47942)
[2] = tested on: GST-CRMP2 recombinant protein (Kinasource, cat# SU-040) [GST: P08515]
[3] = tested on: GST-synaptotagmin recombinant protein [GST: P08515]
[4] = molecular target: synaptotagmin-1, intact 65 kDa protein (rat) (UniProt P21707)
Chain of synaptotagmin-1, intact 65 kDa protein (rat) (P21707 whole entry): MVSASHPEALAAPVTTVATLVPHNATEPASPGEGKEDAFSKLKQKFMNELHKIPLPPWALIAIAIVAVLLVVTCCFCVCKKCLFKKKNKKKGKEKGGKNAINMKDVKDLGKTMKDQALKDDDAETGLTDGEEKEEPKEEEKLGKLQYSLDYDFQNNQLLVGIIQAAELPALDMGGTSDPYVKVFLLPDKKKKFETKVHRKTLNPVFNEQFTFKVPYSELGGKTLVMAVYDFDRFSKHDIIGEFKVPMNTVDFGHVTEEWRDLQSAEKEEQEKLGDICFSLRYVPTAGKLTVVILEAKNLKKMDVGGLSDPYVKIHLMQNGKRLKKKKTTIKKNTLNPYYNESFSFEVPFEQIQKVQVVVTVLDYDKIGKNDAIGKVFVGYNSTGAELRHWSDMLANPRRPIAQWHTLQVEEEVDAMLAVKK

Chain of GST-CRMP2 recombinant protein (Kinasource, cat# SU-040) [GST: P08515] (P08515 whole entry, looked up): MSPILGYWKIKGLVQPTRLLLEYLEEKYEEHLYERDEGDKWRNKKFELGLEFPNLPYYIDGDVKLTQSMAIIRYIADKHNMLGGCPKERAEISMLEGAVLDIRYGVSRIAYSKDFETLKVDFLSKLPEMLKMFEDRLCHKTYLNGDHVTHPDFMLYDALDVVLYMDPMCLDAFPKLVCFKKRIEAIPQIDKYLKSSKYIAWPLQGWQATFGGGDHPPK
Chain of GST-synaptotagmin recombinant protein [GST: P08515] (P08515 whole entry, looked up): as above

| Substance | in vitro protease digestion of naive brain lysate, Western blot [1] | in vitro digestion of the purified protein, Coomassie and Western blot [2] | in vitro digestion of the recombinant protein, Western blot [3] | in vitro protease digestion, Western blot [4] |
| --- | --- | --- | --- | --- |
| calpain (purified; isoform not named where the result is told) | in vitro calpain treatment of naive brain lysate resulted in the same fragmentation pattern observed after TBI in vivo, with the 62 kDa and 66 kDa intact CRMP-2 bands disappearing | purified GST-CRMP-2 protein digested by calpain. The obtained cleavage fragments were used to determine the calpain cleavage site. | The recombinant synaptotagmin was cleaved in vitro to a 21 kDa BDP as detected with anti-GST. | – |
| cathepsin B | – | – | – | Overall, Syt1 was relatively resistant to these proteases and under no conditions was the TBI-associated characteristic BDP-33k detected (results not shown). |
| MMP-9 | – | – | – | Overall, Syt1 was relatively resistant to these proteases and under no conditions was the TBI-associated characteristic BDP-33k detected (results not shown). |
| cathepsin D | – | – | – | Overall, Syt1 was relatively resistant to these proteases and under no conditions was the TBI-associated characteristic BDP-33k detected (results not shown). |
| MMP-2 | – | – | – | Overall, Syt1 was relatively resistant to these proteases and under no conditions was the TBI-associated characteristic BDP-33k detected (results not shown). |
